This is an account of results in publication PMC5525514 (Journal of biomolecular screening, 2011).

The term IC50 denotes the concentration needed to halve the response being measured. High values mean weaker potency, low ones greater potency. As a reminder, the Hill slope is a measure of the steepness of the concentration-response curve. One may read the Kd as the constant that tells how readily two partners part at equilibrium.

T1: Gαo–RGS17 interaction (Homo sapiens, UniProt Q9UGC6)
T1 sequence (Q9UGC6 61-210 limits assumed): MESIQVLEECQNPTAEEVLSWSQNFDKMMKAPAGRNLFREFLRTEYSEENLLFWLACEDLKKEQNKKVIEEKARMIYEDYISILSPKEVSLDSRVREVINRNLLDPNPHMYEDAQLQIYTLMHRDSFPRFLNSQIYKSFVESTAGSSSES

B1: 6x-His-tagged Gαo, not biotinylated (free Gαo) (natural protein, UniProt P59215 1-354, looked up)
chain: MGCTLSAEERAALERSKAIEKNLKEDGISAAKDVKLLLLGAGESGKSTIVKQMKIIHEDGFSGEDVKQYKPVVYSNTIQSLAAIVRAMDTLGVEYGDKERKADSKMVCDVVSRMEDTEPFSAELLSAMMRLWGDSGIQECFNRSREYQLNDSAKYYLDSLDRIGAADYQPTEQDILRTRVKTTGIVETHFTFKNLHFRLFDVGGQRSERKKWIHCFEDVTAIIFCVALSGYDQVLHEDETTNRMHESLMLFDSICNNKFFIDTSIILFLNKKDLFGEKIKKSPLTICFPEYPGSNTYEDAAAYIQTQFESKNRSPNKEIYCHMTCATDTNNIQVVFDAVTDIIIANNLRGCGLY
B2: free Gαo: un-biotinylated Gαo protein used as competitor in the AlphaScreen competition binding assay (protein)
chain: B1 chain
modifications: left off: His6, end not stated, state not stated
B3: GST-RGS17 (human RGS17 with an N-terminal glutathione-S-transferase and a C-terminal 6xHis tag) (domain or fragment, UniProt Q9UGC6 61-210, looked up)
chain: T1 sequence (Q9UGC6 61-210 limits assumed)

Assay [1] concerns the target B3. Briefly: AlphaScreen or HTRF. (In Alpha technology, singlet oxygen from a donor bead excites a nearby acceptor bead.)
Another assay deals with T1, Gαo–RGS17 interaction. Briefly: AlphaScreen competition binding with free Gαo.
Assay [2] deals with biotinylated 6x-His-tagged Gαo (UniProt P59215 1-354, biotin (EZ-Link Biotin-BMCC, maleimide chemistry, labeled at a 10:1 biotin/protein ratio)). Briefly: AlphaScreen or HTRF.

Molecule B1 had an IC50 in assay [1] of 46 ± 1.1 nM.

The molecule B2 registered a Hill slope in the assay with Gαo–RGS17 interaction of −1.3.

On to B3, for which the Kd in assay [2] worked out at 29.2 ± 4.4 nM.
